Reference: PMC7606108 (Acta Pharmaceutica Sinica. B, 2020)

Biological target: the molecule itself
Test: sucrose density gradient analysis

B1: Acetylcholinesterase, endogenous in macrophages (enzyme, UniProt P21836 32-614, looked up)
chain: EGREDPQLLVRVRGGQLRGIRLKAPGGPVSAFLGIPFAEPPVGSRRFMPPEPKRPWSGVLDATTFQNVCYQYVDTLYPGFEGTEMWNPNRELSEDCLYLNVWTPYPRPASPTPVLIWIYGGGFYSGAASLDVYDGRFLAQVEGAVLVSMNYRVGTFGFLALPGSREAPGNVGLLDQRLALQWVQENIAAFGGDPMSVTLFGESAGAASVGMHILSLPSRSLFHRAVLQSGTPNGPWATVSAGEARRRATLLARLVGCPPGGAGGNDTELIACLRTRPAQDLVDHEWHVLPQESIFRFSFVPVVDGDFLSDTPEALINTGDFQDLQVLVGVVKDEGSYFLVYGVPGFSKDNESLISRAQFLAGVRIGVPQASDLAAEAVVLHYTDWLHPEDPTHLRDAMSAVVGDHNVVCPVAQLAGRLAAQGARVYAYIFEHRASTLTWPLWMGVPHGYEIEFIFGLPLDPSLNYTTEERIFAQRLMKYWTNFARTGDPNDPRDSKSPQWPPYTTAAQQYVSLNLKPLEVRRGLRAQTCAFWNRFLPKLLSATDTLDEAERQWKAEFHRWSSYMVHWKNQFDHYSKQERCSDL
stoichiometry N: 4
